Reference: US20020103133

How the values were obtained:
[1] = test system: succinyl-P-L-G-Hof-Y-L-Dox
[2] = test system: acetyl-P-L-G-Hof-Orn-L-Dox

## MMP-9
acetyl-P-L-G-L-L-S-L-Dox
  kcat/Km (cleavage of conjugate, HPLC): 1.49e+08 M⁻¹ s⁻¹
[1]
  kcat/Km (cleavage of conjugate, HPLC): > 1.2e+08 M⁻¹ s⁻¹
acetyl-P-L-G-Hof-Y-L-Dox
  kcat/Km (cleavage of conjugate, HPLC): 3.4e+07 M⁻¹ s⁻¹
acetyl-P-L-G-L-L-Dox
  kcat/Km (cleavage of conjugate, HPLC): 1.3e+08 M⁻¹ s⁻¹
[2]
  kcat/Km (cleavage of conjugate, HPLC): 2.6e+07 M⁻¹ s⁻¹
acetyl-P-L-G-L-A-A-L-Dox
  kcat/Km (cleavage of conjugate, HPLC): 1.65e+08 M⁻¹ s⁻¹
acetyl-G-P-L-G-L-Y-Dox
  kcat/Km (cleavage of conjugate, HPLC): 1.1e+08 M⁻¹ s⁻¹
acetyl-P-L-G-L-Y-L-Dox
  kcat/Km (cleavage of conjugate, HPLC): 3.9e+08 M⁻¹ s⁻¹
acetyl-P-L-G-L-A-L-Dox
  kcat/Km (cleavage of conjugate, HPLC): 2.4e+07 M⁻¹ s⁻¹
acetyl-G-P-L-G-L-L-Dox
  kcat/Km (cleavage of conjugate, HPLC): 9.5e+07 M⁻¹ s⁻¹
acetyl-P-L-G-L-L-A-L-Dox
  kcat/Km (cleavage of conjugate, HPLC): 1.3e+08 M⁻¹ s⁻¹
acetyl-G-P-L-G-L-A-L-Dox
  kcat/Km (cleavage of conjugate, HPLC): 1.9e+07 M⁻¹ s⁻¹
acetyl-P-L-G-L-Y-A-L-Dox
  kcat/Km (cleavage of conjugate, HPLC): 2.96e+08 M⁻¹ s⁻¹
